What is called Kd is a measure of binding affinity in units of concentration. A high value points to lower affinity. The koff is a measure of how fast the partners let go of each other. Low readings indicate slow dissociation, high ones fast dissociation. What is called kon is the rate constant with which the complex forms.

Residue numbers refer to the chain shown, from its start. Some results are limits rather than exact numbers.

Experimental findings from patent US20260062463A1 (KANGYUAN BIOMEDICAL TECH DALIAN, published 2026) are described below.

The chains are these.
T1: AAV8 (adeno-associated virus 8, Assembled 60-mer capsid of VP1/VP2/VP3 (nested products of one cap gene), amine-coupled to a CM5 chip; the letters give one VP1 subunit only.)
T1 construct: also called adeno-associated virus serotype 8
T1 chain: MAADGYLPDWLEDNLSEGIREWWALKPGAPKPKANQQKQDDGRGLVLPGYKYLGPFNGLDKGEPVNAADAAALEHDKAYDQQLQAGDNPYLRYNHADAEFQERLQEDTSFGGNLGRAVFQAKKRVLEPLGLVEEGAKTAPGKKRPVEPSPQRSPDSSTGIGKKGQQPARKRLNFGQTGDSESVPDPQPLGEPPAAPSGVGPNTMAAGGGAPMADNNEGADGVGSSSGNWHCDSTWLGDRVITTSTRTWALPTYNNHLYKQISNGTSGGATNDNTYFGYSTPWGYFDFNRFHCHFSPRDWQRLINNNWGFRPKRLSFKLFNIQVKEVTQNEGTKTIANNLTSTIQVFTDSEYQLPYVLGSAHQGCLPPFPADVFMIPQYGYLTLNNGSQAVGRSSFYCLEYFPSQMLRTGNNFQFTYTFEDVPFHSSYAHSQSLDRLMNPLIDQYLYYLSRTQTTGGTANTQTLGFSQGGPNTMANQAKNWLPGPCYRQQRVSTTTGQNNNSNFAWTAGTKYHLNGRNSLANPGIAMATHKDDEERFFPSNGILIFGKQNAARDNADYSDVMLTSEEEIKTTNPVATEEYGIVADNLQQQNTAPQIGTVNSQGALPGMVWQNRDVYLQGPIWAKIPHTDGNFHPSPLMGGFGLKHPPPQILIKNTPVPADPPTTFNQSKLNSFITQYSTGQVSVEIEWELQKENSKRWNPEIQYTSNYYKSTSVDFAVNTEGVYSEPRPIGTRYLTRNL

B1: A4-C1 (VHH)
chain: VQLQESGGGLVQPGGSLRLSCAASGSGFSINTMGWYRQAPGKQRELVATVTRDGSTNYADFVKGRFTISRDNAKNTVYLQMNSLRPEDTAVYYCHLDEVRESSWTTSNLWGQGTQVTVSSGGGGSGGGGSGGGGSVQLQESGGGLVQPGGSLRLSCAASGSGFSINTMGWYRQAPGKQRELVATVTRDGSTNYADFVKGRFTISRDNAKNTVYLQMNSLRPEDTAVYYCHLDEVRESSWTTSNLWGQGTQVTVSSGGGGSGGGGSGGGGSVQLQESGGGLVQPGGSLRLSCAASGSGFSINTMGWYRQAPGKQRELVATVTRDGSTNYADFVKGRFTISRDNAKNTVYLQMNSLRPEDTAVYYCHLDEVRESSWTTSNLWGQGTQVTVSS
B2: A4-C2 (VHH)
chain: VQLQESGGGLVQPGGSLRLSCAASGSAFSINTMGWYRQAPGKQRELVASVTPGGSTNYADSVKGRFTISRDNAKNTIYLQMNSLRPEDTAVYYCHLDEVRESSWTTSNLWGQGTQVTVSSGGGGSGGGGSGGGGSVQLQESGGGLVQPGGSLRLSCAASGSAFSINTMGWYRQAPGKQRELVASVTPGGSTNYADSVKGRFTISRDNAKNTIYLQMNSLRPEDTAVYYCHLDEVRESSWTTSNLWGQGTQVTVSSGGGGSGGGGSGGGGSVQLQESGGGLVQPGGSLRLSCAASGSAFSINTMGWYRQAPGKQRELVASVTPGGSTNYADSVKGRFTISRDNAKNTIYLQMNSLRPEDTAVYYCHLDEVRESSWTTSNLWGQGTQVTVSS
B3: A4-C4 (bispecific antibody)
chain: VQLQESGGGLVQAGGSLRLSCAASGSRFSINTMGWYRQAPGKQREFVATVTRGGNTNYAESVKGRFTISRDNAKNTVYLQMNSLRPEDTAVYYCHVDEVRDSSWTTSNIWGQGTQVTVSSGGGGSGGGGSGGGGSVQLQESGGGLVQAGGSLRLSCAASGSRFSINTMGWYRQAPGKQREFVATVTRGGNTNYAESVKGRFTISRDNAKNTVYLQMNSLRPEDTAVYYCHVDEVRDSSWTTSNIWGQGTQVTVSSGGGGSGGGGSGGGGSVQLQESGGGLVQPGGSLRLSCAASGSNFRINTMGWYRQAPGKQRELVATVTRGGSTNYADSVKGRFTISRDNPKDTVYLQMNSLRPEDTAVYYCHVDEVRESSWTTSNLWGQGTQVTVSS
B4: A4-B2 (bispecific antibody)
chain: VQLQESGGGLVQAGGSLRLSCAASGSRFSINTMGWYRQAPGKQREFVATVTRGGNTNYAESVKGRFTISRDNAKNTVYLQMNSLRPEDTAVYYCHVDEVRDSSWTTSNIWGQGTQVTVSSGGGGSGGGGSGGGGSVQLQESGGGLVQAGGSLRLSCAASGSTFSINTMGWYRQAPGKQRELVATITRGGNTNYADSVKGRFTISRDNAKNTVYLQMNSLRPEDTAVYYCHVDEVRQSSWTTSNLWGQGTQVTVSS
B5: A4-C9 (bispecific antibody)
chain: VQLQESGGGLVQPGGSLRLSCAASGSNFSINTMGWYRQAPGKQRELVATVTRGGDTNYADSVKGRFTISRDNAKNTVYLQMNSLRPEDTAVYYCHVDEIRESSWTTSNLWGQGTQVTVSSGGGGSGGGGSGGGGSVQLQESGGGLVQPGGSLRLSCAASGSNFSINTMGWYRQAPGKQRELVAALTRGGSTNYADSVKGRFTISRDNAKNTVYLQMNSLRPEDTAVYYCHVDEVRESSWTTSNLWGQGTQVTVSSGGGGSGGGGSGGGGSVQLQESGGGLVQPGGSLRLSCAASGSNFRINTMGWYRQAPGKQRELVAPVTRGGSTNYADSVKGRFTISRDNAKNTVYLQMNSLRPEDTAVYYCHVDEVRESSWTTSNLWGQGTQVTVSS
B6: A4-C6 (bispecific antibody)
chain: B5 chain with S29R, T49P, D55S, I99V, R299S, P319T, S325D, V369I
B7: A4-C5 (bispecific antibody)
chain: B5 chain with S29R, D55S, A73P, I99V, A184T, L185V, S190D, V234I, P319T, A343P
B8: A4-D4 (VHH)
chain: VQLQESGGGLAQAGGSLRLSCAASGRGFSINTMGWYRQAPGKQRELVAAVTRGGTTNYADSVKGRFTISRDNAKNTVYLQMNSLRPEDTAVYYCHVDEVRQSSWTTSNLWGQGTQVTVSSGGGGSGGGGSGGGGSVQLQESGGGLVQPGGSLRLSCAASGRGFSINTMGWYRQAPGKQRELVAAVTRGGTTNYADSVKGRFTISRDNAKNTVYLQMNSLRPEDTAVYYCHVDEVRQSSWTTSNLWGQGTQVTVSSGGGGSGGGGSGGGGSVQLQESGGGLAQAGGSLRLSCAASGRGFSINTMGWYRQAPGKQRELVAAVTRGGTTNYADSVKGRFTISRDNAKNTVYLQMNSLRPEDTAVYYCHVDEVRQSSWTTSNLWGQGTQVTVSSGGGGSGGGGSGGGGSVQLQESGGGLAQAGGSLRLSCAASGRGFSINTMGWYRQAPGKQRELVAAVTRGGTTNYADSVKGRFTISRDNAKNTVYLQMNSLRPEDTAVYYCHVDEVRQSSWTTSNLWGQGTQVTVSS

For the first experiment, the target named is T1, AAV8. Put plainly: SPR, AAV amine-coupled to CM5 chip.
Consider B1, for which binding was put at a Kd of 9.2 nM, the koff is 0.00164 s⁻¹ and the kon amounted to 178000 M⁻¹ s⁻¹.

For the molecule B2, the Kd stood at 0.359 nM, the koff stood at 5e-05 s⁻¹ and the kon is 139000 M⁻¹ s⁻¹.

For B3, the dissociation constant Kd was 2.36 nM, the koff worked out at 0.00025 s⁻¹ and the kon was 106000 M⁻¹ s⁻¹.

Consider B4, for which the affinity, expressed as Kd, was 1.02 nM; the koff worked out at 0.00014 s⁻¹; the kon was determined as 138000 M⁻¹ s⁻¹.

In the case of B5, the Kd amounted to 1.14 nM, the koff was found to be 0.00013 s⁻¹ and the kon turned out to be 114000 M⁻¹ s⁻¹.

Molecule B6 returned a Kd of 2.67 nM, a koff of 0.00044 s⁻¹ and a kon of 165000 M⁻¹ s⁻¹.

B7 displayed a Kd of 4.97 nM, a koff of 0.00091 s⁻¹ and an association rate constant (kon) of 183000 M⁻¹ s⁻¹.

The next experiment has as its target T2, AAV9 (adeno-associated virus 9, Assembled 60-mer capsid of VP1/VP2/VP3 (nested products of one cap gene), amine-coupled to a CM5 chip; the letters give one VP1 subunit only.).
T2 construct: also called adeno-associated virus serotype 9
Put plainly: SPR, AAV amine-coupled to CM5 chip.
The molecule B1 registered a Kd of at most 1.03 nM, a koff of at most 1e-05 s⁻¹ and a kon of 9690 M⁻¹ s⁻¹.

In the case of B2, the Kd was found to be 0.486 nM, the koff worked out at 0.000125 s⁻¹ and the kon is 257000 M⁻¹ s⁻¹.

As for B3, the Kd was determined as 1.87 nM, the koff worked out at 0.00031 s⁻¹ and the kon was determined as 165000 M⁻¹ s⁻¹.

B4: binding was characterised by a dissociation constant (Kd) of 8.35 nM, the koff turned out to be 0.0008 s⁻¹ and the kon was found to be 95800 M⁻¹ s⁻¹.

The molecule B5 had a Kd of 0.669 nM, a koff of 0.00013 s⁻¹ and a kon of 194000 M⁻¹ s⁻¹.

For the molecule B6, the affinity, expressed as Kd, was 0.55 nM; the koff came to 2.5e-05 s⁻¹; the kon was found to be 45400 M⁻¹ s⁻¹.

Consider B7, for which binding was characterised by a dissociation constant (Kd) of 1.68 nM, the koff is 0.0002 s⁻¹ and the kon turned out to be 119000 M⁻¹ s⁻¹.

A further experiment addresses T3, AAV5 (adeno-associated virus 5, Assembled 60-mer capsid of VP1/VP2/VP3 (nested products of one cap gene), amine-coupled to a CM5 chip; the letters give one VP1 subunit only.).
T3 construct: also called adeno-associated virus serotype 5
Briefly: SPR, AAV amine-coupled to CM5 chip. (In general: SPR reads the build-up and loss of mass on a sensor chip optically.)
Molecule B1 registered a Kd of 13.2 nM, a koff of 0.00138 s⁻¹ and a kon of 104000 M⁻¹ s⁻¹.

B2 showed a dissociation constant Kd of 0.691 nM, a koff of 0.000134 s⁻¹ and a kon of 194000 M⁻¹ s⁻¹.

With B3, binding was put at a Kd of 6.72 nM, the koff was 0.00121 s⁻¹ and the kon worked out at 180000 M⁻¹ s⁻¹.

B8 had a dissociation constant (Kd) of 0.657 nM, a koff of 1.73e-05 s⁻¹ and a kon of 26300 M⁻¹ s⁻¹.

With B4, the Kd amounted to 7.38 nM, the koff was 0.00117 s⁻¹ and the kon came to 159000 M⁻¹ s⁻¹.

B5 registered a Kd of 0.777 nM, a koff of 5e-05 s⁻¹ and a kon of 64300 M⁻¹ s⁻¹.

B6 came in with a Kd of 0.785 nM, an off-rate (koff) of 0.000139 s⁻¹ and a kon of 177000 M⁻¹ s⁻¹.

In the case of B7, binding was characterised by a dissociation constant (Kd) of 7.86 nM, the koff worked out at 0.0013 s⁻¹ and the kon amounted to 165000 M⁻¹ s⁻¹.
